Measured values: article PMC7117912
Ends that are not written are not given here.

Tests used:
[1] = target: H2-D^b (mouse MHC I heavy chain ectodomain) refolded with human β2-microglobulin (mouse | human); experiment: fluorescence polarisation; one-step dissociation, uncatalyzed: 300 nM MHC I loaded with TAMRA-labeled peptide, 1000-fold molar excess (300 µM) of unlabeled competitor peptide, no TAPBPR; 23°C, 1xHBS; one-phase exponential decay
[2] = target: HLA-A*02:01 (human MHC I heavy chain ectodomain, amino acids 1-278) refolded with human β2-microglobulin (human); experiment: fluorescence polarisation

TQSC(TAMRA)NTQSI [TQSC*NTQSI (fluorescently labeled medium-affinity peptide for H2-D^b)]
koff [1]: 0.00253 s⁻¹

FLPSDC(TAMRA)FPSF [FLPSDC*FPSF (fluorescently labeled medium-affinity peptide for HLA-A*02:01)]
koff [2]: 0.0019 s⁻¹

ASNC(TAMRA)NMETM [ASNC*NMETM (fluorescently labeled high-affinity peptide for H2-D^b)]
koff [1]: 0.0002 s⁻¹
